Consider 4 molecules from patent publication US20230357429A1 (JANUX THERAPEUTICS, published 2023).

Where two headings read alike, the source gives them in different places. Where no end group is shown, it is not given here.

Assay [1] has as its target T1, Human TROP2 ECD (31-274 AA) (human, UniProt P09758 31-274, biotinylated).
T1 construct: also called biotinylated TROP2; TROP2-biotin
T1 sequence: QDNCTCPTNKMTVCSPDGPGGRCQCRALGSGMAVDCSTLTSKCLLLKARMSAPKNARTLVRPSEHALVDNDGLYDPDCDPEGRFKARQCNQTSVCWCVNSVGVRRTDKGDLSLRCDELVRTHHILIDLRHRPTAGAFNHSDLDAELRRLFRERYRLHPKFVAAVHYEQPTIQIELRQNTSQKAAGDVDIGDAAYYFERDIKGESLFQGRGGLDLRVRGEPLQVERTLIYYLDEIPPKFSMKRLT
Put plainly: ELISA; biotinylated TROP2 on neutravidin plates, PC titrated, HRP secondary. A general note: ELISA stands for enzyme-linked immunosorbent assay.

Assay [2] deals with T2, Human TROP2 ECD (31-274 AA), biotinylated (human, UniProt P09758 31-274, biotinylated (site not stated)).
T2 construct: also called tumor-associated calcium signal transducer 2; Human TROP2-biotin
T2 sequence: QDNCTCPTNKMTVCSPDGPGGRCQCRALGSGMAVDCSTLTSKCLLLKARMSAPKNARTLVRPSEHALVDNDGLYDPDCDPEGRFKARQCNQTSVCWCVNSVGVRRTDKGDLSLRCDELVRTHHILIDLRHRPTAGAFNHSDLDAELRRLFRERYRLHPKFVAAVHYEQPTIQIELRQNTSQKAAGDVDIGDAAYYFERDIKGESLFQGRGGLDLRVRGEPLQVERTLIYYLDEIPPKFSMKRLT
The assay can be described thus: ELISA on immobilized TROP2.

Assay [3] addresses T2, Human TROP2 ECD (31-274 AA), …. Put plainly: ELISA on immobilized TROP2. This is another data set of the same source.
The target of the next assay is T3, Cyno TROP2 Full length (cynomolgus monkey, UniProt P09758 31-323 (human entry)).
T3 chain: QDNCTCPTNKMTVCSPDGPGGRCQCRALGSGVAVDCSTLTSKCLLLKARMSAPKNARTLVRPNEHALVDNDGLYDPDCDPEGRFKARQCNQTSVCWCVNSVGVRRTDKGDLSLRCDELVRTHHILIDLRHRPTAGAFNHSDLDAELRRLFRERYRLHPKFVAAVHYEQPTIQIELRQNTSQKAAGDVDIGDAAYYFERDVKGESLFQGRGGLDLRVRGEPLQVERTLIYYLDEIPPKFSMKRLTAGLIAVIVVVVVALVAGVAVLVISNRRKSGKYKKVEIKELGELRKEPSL
The assay can be described thus: cell-based or functional assay.

In the next assay the target is T4, Human TROP2 Full length (human, UniProt P09758 31-323).
T4 sequence: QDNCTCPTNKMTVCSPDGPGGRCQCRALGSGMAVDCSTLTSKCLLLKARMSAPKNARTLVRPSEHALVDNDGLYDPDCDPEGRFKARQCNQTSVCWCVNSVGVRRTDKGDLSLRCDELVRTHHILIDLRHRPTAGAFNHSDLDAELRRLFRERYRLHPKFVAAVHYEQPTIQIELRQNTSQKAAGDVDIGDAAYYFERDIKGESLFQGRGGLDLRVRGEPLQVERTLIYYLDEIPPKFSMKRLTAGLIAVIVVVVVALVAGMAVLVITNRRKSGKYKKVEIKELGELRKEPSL
Put plainly: cell-based or functional assay.

Assay [4] has as its target T2, Human TROP2 ECD (31-274 AA), …. Put plainly: ELISA on immobilized TROP2. This is another data set of the same source.
The next assay deals with T5, Peptide-70 (cysteine pairing not given here; also: biotinylated, site not given here).
T5 construct: mask peptide for the CD3 scFv
T5 peptide: YLCGPDGDETLACY
The assay can be described thus: ELISA, TCE on captured biotin-peptide.

The target in the next assay is T6, Peptide-77 (cysteine pairing not given here; also: biotinylated, site not given here).
T6 construct: mask peptide for the CD3 scFv
T6 peptide: YLCGPDTDETLACY
Put plainly: ELISA, TCE on captured biotin-peptide.

In the next assay the target is T7, Peptide-76 (cysteine pairing not given here; also: biotinylated, site not given here).
T7 construct: mask peptide for the CD3 scFv
T7 peptide: YLCGPDADETLACY
The assay can be described thus: ELISA, TCE on captured biotin-peptide.

The target in a further assay is T8, Peptide-73 (cysteine pairing not given here; also: biotinylated, site not given here).
T8 construct: mask peptide for the CD3 scFv
T8 peptide: VYCGPEFDESVGCA
The assay can be described thus: ELISA, TCE on captured biotin-peptide.

A further assay addresses T9, Peptide-72 (cysteine pairing not given here; also: biotinylated, site not given here).
T9 construct: mask peptide for the CD3 scFv
T9 peptide: AYCGPEFDESVGCM
The assay can be described thus: ELISA, TCE on captured biotin-peptide.

Another assay concerns the target T10, Peptide-65 (cysteine pairing not given here; also: biotinylated, site not given here).
T10 construct: mask peptide for the CD3 scFv
T10 peptide: QGCGTIADPEPHCW
The assay can be described thus: ELISA, TCE on captured biotin-peptide.

A further assay has as its target T11, Peptide-69 (cysteine pairing not given here; also: biotinylated, site not given here).
T11 construct: mask peptide for the CD3 scFv
T11 peptide: SECLVDLQSDPCYW
The assay can be described thus: ELISA, TCE on captured biotin-peptide.

A further assay has as its target T12, Peptide-68 (cysteine pairing not given here; also: biotinylated, site not given here).
T12 construct: mask peptide for the CD3 scFv
T12 peptide: DWCWYSPDNDGLCD
The assay can be described thus: ELISA, TCE on captured biotin-peptide.

A further assay has as its target T13, Peptide-71 (cysteine pairing not given here; also: biotinylated, site not given here).
T13 construct: mask peptide for the CD3 scFv
T13 peptide: VDCGPDGDESILCY
Put plainly: ELISA, TCE on captured biotin-peptide.

The next assay has as its target T14, Peptide-75 (cysteine pairing not given here; also: biotinylated, site not given here).
T14 construct: mask peptide for the CD3 scFv
T14 peptide: GSACLGPEWEVCPY
Put plainly: ELISA, TCE on captured biotin-peptide.

The next assay concerns the target T15, Peptide-74 (cysteine pairing not given here; also: biotinylated, site not given here).
T15 construct: mask peptide for the CD3 scFv
T15 peptide: ASQCLGPEWEVCPY
Put plainly: ELISA, TCE on captured biotin-peptide.

B1: PC-18 (bispecific antibody)
light: GGVDFCALYHWPICYQGGGGSGGLSGRSDAGSPLGLAGSGGSDIQLTQSPSSLSASVGDRVSITCKASQDVSIAVAWYQQKPGKAPKLLIYSASYRYTGVPDRFSGSGSGTDFTLTISSLQPEDFAVYYCQQHYITPLTFGAGTKVEIKRTVAAPSVFIFPPSDEQLKSGTASVVCLLNNFYPREAKVQWKVDNALQSGNSQESVTEQDSKDSTYSLSSTLTLSKADYEKHKVYACEVTHQGLSSPVTKSFNRGEC
heavy: not shown
notes: Masked polypeptide complex: anti-TROP2 Fab F108A, anti-CD3 scFv wt; cleavable linkers
As for B1, the EC50 (in general, the concentration needed to bring the measured effect to its halfway point) was 957 nM in assay [1], 206 nM in assay [2] and 301 nM in [3]. Besides, the “CyTROP2 HEK293 EC50 (pM)” value with Cyno TROP2 Full length stood at 8250 pM. For the same molecule, the “H292 Cytotoxicity EC50 (pM)” value with Human TROP2 Full length was > 100000 pM. Besides, the “HCT116 Cytotoxicity EC50 (pM)” value with Human TROP2 Full length is > 100000 pM.

B2: TCE-7 (anti-CD3 wt, anti-TROP2 F108A) (bispecific antibody)
light: DIQLTQSPSSLSASVGDRVSITCKASQDVSIAVAWYQQKPGKAPKLLIYSASYRYTGVPDRFSGSGSGTDFTLTISSLQPEDFAVYYCQQHYITPLTFGAGTKVEIKRTVAAPSVFIFPPSDEQLKSGTASVVCLLNNFYPREAKVQWKVDNALQSGNSQESVTEQDSKDSTYSLSSTLTLSKADYEKHKVYACEVTHQGLSSPVTKSFNRGEC
heavy: not shown
notes: scFv on the Fab heavy chain; the entry already carries the mutation
In the case of B2, the EC50 in [4] is 1.41 nM; in assay [2], 0.18 nM; in assay [3] it was 0.36 nM.

B3: TCE-36 (anti-CD3 scFv H101A; anti-TROP2 F108A) (bispecific antibody)
light: DIQLTQSPSSLSASVGDRVSITCKASQDVSIAVAWYQQKPGKAPKLLIYSASYRYTGVPDRFSGSGSGTDFTLTISSLQPEDFAVYYCQQHYITPLTFGAGTKVEIKRTVAAPSVFIFPPSDEQLKSGTASVVCLLNNFYPREAKVQWKVDNALQSGNSQESVTEQDSKDSTYSLSSTLTLSKADYEKHKVYACEVTHQGLSSPVTKSFNRGEC
heavy: not shown
notes: scFv on the Fab heavy chain
For the molecule B3, the EC50 with Peptide-70 stood at 0.59 nM; with Peptide-77 it was 1620 nM; in the assay with Peptide-76, 166 nM; in the assay with Peptide-73, 4.11 nM.

B4: TCE-11 (anti-CD3 scFv H101A; anti-TROP2 wt) (bispecific antibody)
light: DIQLTQSPSSLSASVGDRVSITCKASQDVSIAVAWYQQKPGKAPKLLIYSASYRYTGVPDRFSGSGSGTDFTLTISSLQPEDFAVYYCQQHYITPLTFGAGTKVEIKRTVAAPSVFIFPPSDEQLKSGTASVVCLLNNFYPREAKVQWKVDNALQSGNSQESVTEQDSKDSTYSLSSTLTLSKADYEKHKVYACEVTHQGLSSPVTKSFNRGEC
heavy: not shown
notes: scFv on the Fab heavy chain; also called TCE-11 (H101A)
Consider B4, for which the EC50 in the assay with Peptide-72 amounted to 1.36 nM; with Peptide-65, 6.92 nM; with Peptide-69, 6.94 nM; with Peptide-68, 60.9 nM; with Peptide-71 it was 1.28 nM; in the assay with Peptide-75, 1.05 nM. The EC50 with Peptide-74 is 0.83 nM.
